This data set in a line: background-corrected fluorescence of 3'-dye-labeled ssDNA relative to brightest sequence (3'-GCGCG) (fraction); higher = brighter dye fluorescence (less quenching). A digest of the protocol: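 Each of 1024 permuted pentamers was synthesized as single-stranded DNA on glass slides by light-directed phosphoramidite chemistry, with a 3' Cy3 or Cy5 dye alongside. Arrays were scanned at 532 or 635 nm before and after overnight deprotection with ethylenediamine/ethanol. Values average 10 features per array across at least 3 syntheses. The fluorescence readout, with unlabeled-oligo background removed, is given relative to the brightest sequence.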

± gives the standard error.

As to “TTTTTTGCTGAGCATGAGCATTTTTTTTTTTTTTTACTCT [TCTCA]”, the background-corrected fluorescence was found to be 0.421 ± 0.0073 (dye: Cy3 (3' terminal)) and 0.331 ± 0.022 (dye: Cy5 (3' terminal)).
For “TTTTTTGCTGAGCATGATCATTTTTTTTTTTTTTTACTCG [GCTCA]” the same measures were 0.571 ± 0.028 and 0.418 ± 0.03.
Take “TTTTTTGCTGAGCATGATGATTTTTTTTTTTTTTTACTCC [CCTCA]”: the background-corrected fluorescence is, setting by setting: (dye: Cy3 (3' terminal)) 0.378 ± 0.023; (dye: Cy5 (3' terminal)) 0.3 ± 0.044.
In the same order, the values of “TTTTTTGCTGAGCATGATGCTTTTTTTTTTTTTTTACTCA” are 0.482 ± 0.028 and 0.346 ± 0.028.
In the case of “TTTTTTGCTGAGCATGCGCATTTTTTTTTTTTTTTACTAT [TATCA]”, the background-corrected fluorescence is 0.531 ± 0.012 (dye: Cy3 (3' terminal)) and 0.392 ± 0.021 (dye: Cy5 (3' terminal)).
As to “TTTTTTGCTGAGCATGCTCATTTTTTTTTTTTTTTACTAG [GATCA]”, the background-corrected fluorescence runs as follows: (dye: Cy3 (3' terminal)) 0.554 ± 0.029; (dye: Cy5 (3' terminal)) 0.433 ± 0.025.
With “TTTTTTGCTGAGCATGCTGATTTTTTTTTTTTTTTACTAC [CATCA]”, the background-corrected fluorescence amounted to 0.477 ± 0.017 (dye: Cy3 (3' terminal)) and 0.328 ± 0.035 (dye: Cy5 (3' terminal)).
As to “TTTTTTGCTGAGCATGCTGCTTTTTTTTTTTTTTTACTAA [AATCA]”, the background-corrected fluorescence was 0.522 ± 0.0087 (dye: Cy3 (3' terminal)) and 0.413 ± 0.021 (dye: Cy5 (3' terminal)).
With “TTTTTTGCTGATCAGCAGCATTTTTTTTTTTTTTTACGTT [TTGCA]”, the background-corrected fluorescence by setting is: (dye: Cy3 (3' terminal)) 0.552 ± 0.018; (dye: Cy5 (3' terminal)) 0.433 ± 0.029.
For “TTTTTTGCTGATCAGCATCATTTTTTTTTTTTTTTACGTG [GTGCA]” the same measures were 0.589 ± 0.022 and 0.472 ± 0.028.
In the same order, the values of “TTTTTTGCTGATCAGCATGATTTTTTTTTTTTTTTACGTC [CTGCA]” are 0.448 ± 0.016 and 0.373 ± 0.025.
On to “TTTTTTGCTGATCAGCATGCTTTTTTTTTTTTTTTACGTA [ATGCA]”, for which the background-corrected fluorescence was determined as 0.61 ± 0.016 (dye: Cy3 (3' terminal)) and 0.465 ± 0.024 (dye: Cy5 (3' terminal)).
As for “TTTTTTGCTGATCATCAGCATTTTTTTTTTTTTTTACGGT [TGGCA]”, the background-corrected fluorescence by setting is: (dye: Cy3 (3' terminal)) 0.664 ± 0.018; (dye: Cy5 (3' terminal)) 0.565 ± 0.045.
On to “TTTTTTGCTGATCATCATCATTTTTTTTTTTTTTTACGGG [GGGCA]”, for which the background-corrected fluorescence stood at 0.6553 ± 0.0063 (dye: Cy3 (3' terminal)) and 0.579 ± 0.05 (dye: Cy5 (3' terminal)).
For “TTTTTTGCTGATCATCATGATTTTTTTTTTTTTTTACGGC [CGGCA]” the same measures were 0.594 ± 0.029 and 0.433 ± 0.049.
For “TTTTTTGCTGATCATCATGCTTTTTTTTTTTTTTTACGGA [AGGCA]” the same measures were 0.683 ± 0.03 and 0.588 ± 0.029.
For “TTTTTTGCTGATCATGAGCATTTTTTTTTTTTTTTACGCT [TCGCA]” the same measures were 0.5 ± 0.065 and 0.391 ± 0.029.
“TTTTTTGCTGATCATGATCATTTTTTTTTTTTTTTACGCG [GCGCA]” gave a background-corrected fluorescence (dye: Cy3 (3' terminal)) of 0.973 ± 0.017 and a background-corrected fluorescence (dye: Cy5 (3' terminal)) of 0.876 ± 0.027.
In the same order, the values of “TTTTTTGCTGATCATGATGATTTTTTTTTTTTTTTACGCC [CCGCA]” are 0.467 ± 0.021 and 0.393 ± 0.027.
In the case of “TTTTTTGCTGATCATGATGCTTTTTTTTTTTTTTTACGCA”, the background-corrected fluorescence by setting is: (dye: Cy3 (3' terminal)) 0.525 ± 0.032; (dye: Cy5 (3' terminal)) 0.445 ± 0.028.
In the same order, the values of “TTTTTTGCTGATCATGCGCATTTTTTTTTTTTTTTACGAT [TAGCA]” are 0.519 ± 0.035 and 0.429 ± 0.045.
In the same order, the values of “TTTTTTGCTGATCATGCTCATTTTTTTTTTTTTTTACGAG [GAGCA]” are 0.62 ± 0.017 and 0.507 ± 0.078.
In the same order, the values of “TTTTTTGCTGATCATGCTGATTTTTTTTTTTTTTTACGAC [CAGCA]” are 0.486 ± 0.025 and 0.38 ± 0.035.
Turning to “TTTTTTGCTGATCATGCTGCTTTTTTTTTTTTTTTACGAA [AAGCA]”, the background-corrected fluorescence is, setting by setting: (dye: Cy3 (3' terminal)) 0.575 ± 0.032; (dye: Cy5 (3' terminal)) 0.452 ± 0.026.
With “TTTTTTGCTGATGAGCAGCATTTTTTTTTTTTTTTACCTT [TTCCA]”, the background-corrected fluorescence was determined as 0.463 ± 0.018 (dye: Cy3 (3' terminal)) and 0.351 ± 0.018 (dye: Cy5 (3' terminal)).
Sequence “TTTTTTGCTGATGAGCATCATTTTTTTTTTTTTTTACCTG [GTCCA]” yielded a background-corrected fluorescence (dye: Cy3 (3' terminal)) of 0.499 ± 0.023 and a background-corrected fluorescence (dye: Cy5 (3' terminal)) of 0.384 ± 0.02.
Regarding “TTTTTTGCTGATGAGCATGATTTTTTTTTTTTTTTACCTC [CTCCA]”, the background-corrected fluorescence is, setting by setting: (dye: Cy3 (3' terminal)) 0.438 ± 0.0039; (dye: Cy5 (3' terminal)) 0.271 ± 0.016.
In the same order, the values of “TTTTTTGCTGATGAGCATGCTTTTTTTTTTTTTTTACCTA [ATCCA]” are 0.449 ± 0.018 and 0.366 ± 0.019.
In the same order, the values of “TTTTTTGCTGATGATCAGCATTTTTTTTTTTTTTTACCGT [TGCCA]” are 0.624 ± 0.025 and 0.479 ± 0.034.
For “TTTTTTGCTGATGATCATCATTTTTTTTTTTTTTTACCGG [GGCCA]”, the background-corrected fluorescence was found to be 0.69 ± 0.03 (dye: Cy3 (3' terminal)) and 0.551 ± 0.059 (dye: Cy5 (3' terminal)).
For the sequence “TTTTTTGCTGATGATCATGATTTTTTTTTTTTTTTACCGC [CGCCA]”, the background-corrected fluorescence is, setting by setting: (dye: Cy3 (3' terminal)) 0.592 ± 0.014; (dye: Cy5 (3' terminal)) 0.406 ± 0.026.
In the same order, the values of “TTTTTTGCTGATGATCATGCTTTTTTTTTTTTTTTACCGA [AGCCA]” are 0.601 ± 0.025 and 0.515 ± 0.031.
For “TTTTTTGCTGATGATGAGCATTTTTTTTTTTTTTTACCCT [TCCCA]”, the background-corrected fluorescence is, setting by setting: (dye: Cy3 (3' terminal)) 0.446 ± 0.023; (dye: Cy5 (3' terminal)) 0.34 ± 0.021.
In the same order, the values of “TTTTTTGCTGATGATGATCATTTTTTTTTTTTTTTACCCG [GCCCA]” are 0.505 ± 0.03 and 0.411 ± 0.03.
In the same order, the values of “TTTTTTGCTGATGATGATGATTTTTTTTTTTTTTTACCCC [CCCCA]” are 0.358 ± 0.016 and 0.271 ± 0.027.
In the same order, the values of “TTTTTTGCTGATGATGATGCTTTTTTTTTTTTTTTACCCA” are 0.462 ± 0.029 and 0.351 ± 0.019.
“TTTTTTGCTGATGATGCGCATTTTTTTTTTTTTTTACCAT”: the background-corrected fluorescence came to 0.499 ± 0.026 (dye: Cy3 (3' terminal)) and 0.364 ± 0.024 (dye: Cy5 (3' terminal)).
In the case of “TTTTTTGCTGATGATGCTCATTTTTTTTTTTTTTTACCAG [GACCA]”, the background-corrected fluorescence runs as follows: (dye: Cy3 (3' terminal)) 0.516 ± 0.024; (dye: Cy5 (3' terminal)) 0.378 ± 0.028.
As to “TTTTTTGCTGATGATGCTGATTTTTTTTTTTTTTTACCAC [CACCA]”, the background-corrected fluorescence was 0.405 ± 0.01 (dye: Cy3 (3' terminal)) and 0.286 ± 0.018 (dye: Cy5 (3' terminal)).
In the same order, the values of “TTTTTTGCTGATGATGCTGCTTTTTTTTTTTTTTTACCAA [AACCA]” are 0.485 ± 0.029 and 0.402 ± 0.022.
Take “TTTTTTGCTGATGCGCAGCATTTTTTTTTTTTTTTACATT”: the background-corrected fluorescence runs as follows: (dye: Cy3 (3' terminal)) 0.546 ± 0.011; (dye: Cy5 (3' terminal)) 0.384 ± 0.021.
As to “TTTTTTGCTGATGCGCATCATTTTTTTTTTTTTTTACATG [GTACA]”, the background-corrected fluorescence was 0.519 ± 0.03 (dye: Cy3 (3' terminal)) and 0.409 ± 0.023 (dye: Cy5 (3' terminal)).
In the same order, the values of “TTTTTTGCTGATGCGCATGATTTTTTTTTTTTTTTACATC [CTACA]” are 0.392 ± 0.027 and 0.322 ± 0.018.
In the same order, the values of “TTTTTTGCTGATGCGCATGCTTTTTTTTTTTTTTTACATA [ATACA]” are 0.591 ± 0.025 and 0.403 ± 0.038.
With “TTTTTTGCTGATGCTCAGCATTTTTTTTTTTTTTTACAGT [TGACA]”, the background-corrected fluorescence (dye: Cy3 (3' terminal)) came to 0.629 ± 0.039 and the background-corrected fluorescence (dye: Cy5 (3' terminal)) came out at 0.474 ± 0.03.
Take “TTTTTTGCTGATGCTCATCATTTTTTTTTTTTTTTACAGG [GGACA]”: the background-corrected fluorescence reads like this: (dye: Cy3 (3' terminal)) 0.646 ± 0.034; (dye: Cy5 (3' terminal)) 0.511 ± 0.053.
In the same order, the values of “TTTTTTGCTGATGCTCATGATTTTTTTTTTTTTTTACAGC [CGACA]” are 0.508 ± 0.023 and 0.404 ± 0.024.
For “TTTTTTGCTGATGCTCATGCTTTTTTTTTTTTTTTACAGA [AGACA]” the same measures were 0.615 ± 0.02 and 0.459 ± 0.036.
For “TTTTTTGCTGATGCTGAGCATTTTTTTTTTTTTTTACACT [TCACA]” the same measures were 0.51 ± 0.018 and 0.35 ± 0.033.
Consider “TTTTTTGCTGATGCTGATCATTTTTTTTTTTTTTTACACG [GCACA]”, for which the background-corrected fluorescence by setting is: (dye: Cy3 (3' terminal)) 0.504 ± 0.029; (dye: Cy5 (3' terminal)) 0.422 ± 0.054.
In the same order, the values of “TTTTTTGCTGATGCTGATGATTTTTTTTTTTTTTTACACC [CCACA]” are 0.369 ± 0.022 and 0.275 ± 0.012.
In the same order, the values of “TTTTTTGCTGATGCTGATGCTTTTTTTTTTTTTTTACACA” are 0.469 ± 0.022 and 0.374 ± 0.031.
For “TTTTTTGCTGATGCTGCGCATTTTTTTTTTTTTTTACAAT [TAACA]” the same measures were 0.525 ± 0.028 and 0.396 ± 0.021.
In the case of “TTTTTTGCTGATGCTGCTCATTTTTTTTTTTTTTTACAAG [GAACA]”, the background-corrected fluorescence runs as follows: (dye: Cy3 (3' terminal)) 0.53 ± 0.015; (dye: Cy5 (3' terminal)) 0.425 ± 0.021.
In the same order, the values of “TTTTTTGCTGATGCTGCTGATTTTTTTTTTTTTTTACAAC [CAACA]” are 0.448 ± 0.0078 and 0.302 ± 0.032.
For “TTTTTTGCTGATGCTGCTGCTTTTTTTTTTTTTTTACAAA [AAACA]” the same measures were 0.581 ± 0.022 and 0.499 ± 0.064.
Consider “TTTTTTGCTGCGCAGCAGCATTTTTTTTTTTTTTTAATTT”, for which the background-corrected fluorescence (dye: Cy3 (3' terminal)) worked out at 0.559 ± 0.029 and the background-corrected fluorescence (dye: Cy5 (3' terminal)) turned out to be 0.39 ± 0.025.
“TTTTTTGCTGCGCAGCATCATTTTTTTTTTTTTTTAATTG [GTTAA]” gave a background-corrected fluorescence (dye: Cy3 (3' terminal)) of 0.561 ± 0.03 and a background-corrected fluorescence (dye: Cy5 (3' terminal)) of 0.381 ± 0.025.

The record behind these values is the supplement of paper PMC9428881.
